From paper PMC3570234 (Molecular pharmaceutics, 2012)

Target: the molecule itself
Test: MALDI-ToF MS

B1: Superoxide dismutase 1 (SOD1) from bovine erythrocytes (enzyme)
chain: not shown
Q: Does B1 bind?
A: binds
